Experimental data from patent US20110151450.
Changes are numbered by the printed parent chain.

Columns and labels:
Experiment in all cases: cleavage_in_vitro
[1] = system: T1, BsmAI-HF N212A (Bacillus stearothermophilus); settings: NEB4, relative activity 100%
T1 sequence: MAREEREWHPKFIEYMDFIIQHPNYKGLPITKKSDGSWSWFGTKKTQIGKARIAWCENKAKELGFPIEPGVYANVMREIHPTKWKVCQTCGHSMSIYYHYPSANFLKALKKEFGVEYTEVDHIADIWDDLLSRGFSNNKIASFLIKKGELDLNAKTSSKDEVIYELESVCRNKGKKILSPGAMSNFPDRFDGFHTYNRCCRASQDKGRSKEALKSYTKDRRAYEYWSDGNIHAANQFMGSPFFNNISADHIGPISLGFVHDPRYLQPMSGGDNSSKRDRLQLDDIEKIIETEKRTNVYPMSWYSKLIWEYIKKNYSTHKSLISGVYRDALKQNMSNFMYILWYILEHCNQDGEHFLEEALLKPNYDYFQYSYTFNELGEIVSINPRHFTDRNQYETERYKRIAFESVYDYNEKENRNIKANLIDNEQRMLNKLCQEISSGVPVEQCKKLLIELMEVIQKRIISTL

[2] = system: T2, BsmAI-WT (Bacillus stearothermophilus); settings: NEB4, relative activity 100%
T2 sequence: T1 sequence with A212N

[3] = system: T3, BsmBI-HF W238A (Bacillus stearothermophilus); settings: NEB4, relative activity 100%
T3 sequence: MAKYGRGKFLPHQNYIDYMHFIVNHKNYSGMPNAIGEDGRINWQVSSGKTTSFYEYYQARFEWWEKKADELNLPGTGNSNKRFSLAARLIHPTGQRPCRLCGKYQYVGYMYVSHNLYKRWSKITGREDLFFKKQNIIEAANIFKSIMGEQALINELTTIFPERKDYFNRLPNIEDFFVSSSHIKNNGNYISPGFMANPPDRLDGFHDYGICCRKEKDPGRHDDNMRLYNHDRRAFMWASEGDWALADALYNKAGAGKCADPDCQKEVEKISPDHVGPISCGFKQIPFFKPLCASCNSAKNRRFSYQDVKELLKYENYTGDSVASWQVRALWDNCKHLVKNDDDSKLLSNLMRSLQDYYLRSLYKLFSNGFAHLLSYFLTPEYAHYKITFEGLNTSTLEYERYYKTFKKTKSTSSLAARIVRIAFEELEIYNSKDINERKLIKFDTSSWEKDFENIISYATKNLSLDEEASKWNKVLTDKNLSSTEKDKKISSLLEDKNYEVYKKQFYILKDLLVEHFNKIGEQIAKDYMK

[4] = system: T4, BsmBI-WT (Bacillus stearothermophilus); settings: NEB4, relative activity 25%
T4 sequence: T3 sequence with A238W

[5] = system: T5, BstXI-WT (Bacillus stearothermophilus); settings: NEB4, relative activity 100%
T5 sequence: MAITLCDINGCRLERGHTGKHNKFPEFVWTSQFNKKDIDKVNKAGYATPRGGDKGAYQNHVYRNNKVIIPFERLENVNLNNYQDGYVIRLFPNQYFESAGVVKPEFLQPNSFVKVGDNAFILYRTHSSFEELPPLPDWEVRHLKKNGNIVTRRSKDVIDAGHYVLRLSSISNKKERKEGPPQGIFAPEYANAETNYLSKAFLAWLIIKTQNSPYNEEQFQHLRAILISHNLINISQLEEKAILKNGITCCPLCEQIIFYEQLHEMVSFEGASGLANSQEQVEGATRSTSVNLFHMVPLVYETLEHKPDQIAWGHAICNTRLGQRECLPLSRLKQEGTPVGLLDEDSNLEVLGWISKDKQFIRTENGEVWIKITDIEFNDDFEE

[6] = system: T6, BstXI-HF N65T (Bacillus stearothermophilus); settings: NEB4, relative activity 100%
T6 sequence: T5 sequence with N65T

[7] = system: T7, DraIII-HF T181A (Deinococcus radiophilus); settings: NEB4, 37 C 1 h, relative activity 100%; Table 1 gives >=2000
T7 sequence: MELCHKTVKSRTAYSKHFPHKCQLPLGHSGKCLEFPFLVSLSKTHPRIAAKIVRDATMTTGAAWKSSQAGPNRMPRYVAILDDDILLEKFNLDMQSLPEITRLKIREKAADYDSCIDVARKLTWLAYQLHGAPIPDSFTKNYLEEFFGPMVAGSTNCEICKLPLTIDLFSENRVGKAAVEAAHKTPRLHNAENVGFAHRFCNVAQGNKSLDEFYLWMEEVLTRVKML

[8] = system: T8, DraIII-WT (Deinococcus radiophilus); settings: NEB4, 37 C 1 h, relative activity 50%
T8 sequence: T7 sequence with A181T

[9] = molecular target: T9, HindIII-WT (Haemophilus influenzae) (UniProt P43870); settings: NEB4, relative activity 50%
T9 sequence: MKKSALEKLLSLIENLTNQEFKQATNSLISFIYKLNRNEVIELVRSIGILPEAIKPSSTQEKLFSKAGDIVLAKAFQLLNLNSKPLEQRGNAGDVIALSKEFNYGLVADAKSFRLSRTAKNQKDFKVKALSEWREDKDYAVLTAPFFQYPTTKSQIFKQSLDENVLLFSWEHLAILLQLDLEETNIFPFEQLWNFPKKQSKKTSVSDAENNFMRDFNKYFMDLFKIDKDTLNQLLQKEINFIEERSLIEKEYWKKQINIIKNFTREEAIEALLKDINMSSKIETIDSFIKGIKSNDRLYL

[10] = molecular target: T10, SfiI-HF R114A (Streptomyces fimbriatus) (UniProt O52512); settings: NEB4, relative activity 100%
T10 sequence: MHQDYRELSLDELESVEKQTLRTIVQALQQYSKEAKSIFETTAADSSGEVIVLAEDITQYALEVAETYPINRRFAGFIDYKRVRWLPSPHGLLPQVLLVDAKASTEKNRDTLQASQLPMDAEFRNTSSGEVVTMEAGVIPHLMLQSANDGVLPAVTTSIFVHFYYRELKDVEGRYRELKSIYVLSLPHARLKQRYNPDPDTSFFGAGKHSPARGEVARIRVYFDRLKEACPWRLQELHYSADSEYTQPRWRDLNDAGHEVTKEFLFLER

[11] = molecular target: T11, SfiI-WT (Streptomyces fimbriatus) (UniProt O52512); settings: NEB4, relative activity 25%
T11 sequence: T10 sequence with A114R

[12] = system: T12, PspGI-HF R75A (Pyrococcus species); settings: NEB4, relative activity 100%
T12 sequence: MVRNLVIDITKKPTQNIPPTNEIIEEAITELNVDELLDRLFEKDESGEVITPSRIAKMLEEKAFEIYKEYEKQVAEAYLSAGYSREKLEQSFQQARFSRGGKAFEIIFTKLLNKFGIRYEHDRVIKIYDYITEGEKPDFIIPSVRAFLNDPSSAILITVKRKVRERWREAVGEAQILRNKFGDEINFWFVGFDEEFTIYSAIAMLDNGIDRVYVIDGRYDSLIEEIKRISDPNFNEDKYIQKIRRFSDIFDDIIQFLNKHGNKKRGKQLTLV

[13] = system: T13, PspGI-WT (Pyrococcus species); settings: NEB4, relative activity 100%
T13 sequence: T12 sequence with A75R

Substance: FX174 DNA
- activity (fidelity index) [1]: > 4000
- activity (fidelity index) [2]: 250

Substance: lambda DNA, BsmBI sites
- activity (fidelity index) [3]: 250
- activity (fidelity index) [4]: 4

Substance: lambda DNA, BstXI sites
- activity (fidelity index) [5]: 32
- activity (fidelity index) [6]: > 1000

Substance: lambda DNA, DraIII sites
- activity (fidelity index) [7]: > 64000
- activity (fidelity index) [8]: 0.5

Substance: lambda DNA, HindIII sites
- activity (fidelity index) [9]: 32

Substance: pBC4 plasmid
- activity (fidelity index) [10]: > 8000
- activity (fidelity index) [11]: 64
- activity (fidelity index) [12]: > 4000
- activity (fidelity index) [13]: 1
